Assay results taken from patent US20190016828A1 (Hoffmann-La Roche, published 2019).
Substitutions are numbered along the chain they refer to. In names and notes the source's numbering stands.

B1: YTE-mutant of anti-IGF-1R antibody (antibody, human IgG1, kappa)
light: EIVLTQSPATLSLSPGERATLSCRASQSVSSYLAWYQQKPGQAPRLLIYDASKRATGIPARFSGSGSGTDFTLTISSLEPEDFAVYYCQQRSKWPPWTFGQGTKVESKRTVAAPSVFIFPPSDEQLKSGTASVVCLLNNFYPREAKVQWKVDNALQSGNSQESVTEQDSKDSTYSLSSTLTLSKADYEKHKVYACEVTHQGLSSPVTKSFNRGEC
heavy: QVELVESGGGVVQPGRSQRLSCAASGFTFSSYGMHWVRQAPGKGLEWVAIIWFDGSSTYYADSVRGRFTISRDNSKNTLYLQMNSLRAEDTAVYFCARELGRRYFDLWGRGTLVSVSSASTKGPSVFPLAPSSKSTSGGTAALGCLVKDYFPEPVTVSWNSGALTSGVHTFPAVLQSSGLYSLSSVVTVPSSSLGTQTYICNVNHKPSNTKVDKKVEPKSCDKTHTCPPCPAPELLGGPSVFLFPPKPKDTLYITREPEVTCVVVDVSHEDPEVKFNWYVDGVEVHNAKTKPREEQYNSTYRVVSVLTVLHQDWLNGKEYKCKVSNKALPAPIEKTISKAKGQPREPQVYTLPPSRDELTKNQVSLTCLVKGFYPSDIAVEWESNGQPENNYKTTPPVLDSDGSFFLYSKLTVDKSRWQQGNVFSCSVMHEALHNHYTQKSLSLSPG
notes: IgG1; also called <IGF-1R> IgG1 with M252Y, S254T, T256E; anti-IGF-1R IgG1 with YTE mutation
B2: IGF-1R 0034 (antibody, human IgG1, kappa)
light: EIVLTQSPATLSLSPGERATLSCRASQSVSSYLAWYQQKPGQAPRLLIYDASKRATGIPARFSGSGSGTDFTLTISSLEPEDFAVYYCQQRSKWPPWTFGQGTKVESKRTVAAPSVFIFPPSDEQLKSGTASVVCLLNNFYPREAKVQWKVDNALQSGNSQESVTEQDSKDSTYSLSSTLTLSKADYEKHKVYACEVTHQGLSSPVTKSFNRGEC
heavy 1: not shown
heavy 2: QVELVESGGGVVQPGRSQRLSCAASGFTFSSYGMHWVRQAPGKGLEWVAIIWFDGSSTYYADSVRGRFTISRDNSKNTLYLQMNSLRAEDTAVYFCARELGRRYFDLWGRGTLVSVSSASTKGPSVFPLAPSSKSTSGGTAALGCLVKDYFPEPVTVSWNSGALTSGVHTFPAVLQSSGLYSLSSVVTVPSSSLGTQTYICNVNHKPSNTKVDKKVEPKSCDKTHTCPPCPAPELLGGPSVFLFPPKPKDTLMASRTPEVTCVVVDVSHEDPEVKFNWYVDGVEVHNAKTKPREEQYNSTYRVVSVLTVLAQDWLNGKEYKCKVSNKALPAPIEKTISKAKGQPREPQVCTLPPSRDELTKNQVSLSCAVKGFYPSDIAVEWESNGQPENNYKTTPPVLDSDGSFFLVSKLTVDKSRWQQGNVFSCSVMHEALHNAYTQKSLSLSPGK
notes: tied by description; also called <IgF-1R> IgG1 knob wt, hole I253A, H310A, H435A; anti-IGF-1R antibody, one chain with I253A/H310A/H435A
B3: IGF-1R 0035 (antibody, human IgG1, kappa)
light: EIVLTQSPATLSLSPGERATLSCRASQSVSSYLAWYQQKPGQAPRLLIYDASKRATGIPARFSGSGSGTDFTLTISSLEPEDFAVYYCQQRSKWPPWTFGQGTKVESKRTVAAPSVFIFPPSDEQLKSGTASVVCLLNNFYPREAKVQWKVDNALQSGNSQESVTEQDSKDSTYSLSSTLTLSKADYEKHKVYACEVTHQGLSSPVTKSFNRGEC
heavy 1: not shown
heavy 2: B2 heavy 2 with A254I, H434A, A436H, Y437A
notes: also called <IGF-1R> IgG1 knob wt, hole H310A, H433A, Y436A; IGF-1R 0035 (with HHY-AAA mutation in one Fc-region polypeptide)
B4: IGF-1R 0036 (antibody, human IgG1, kappa)
light: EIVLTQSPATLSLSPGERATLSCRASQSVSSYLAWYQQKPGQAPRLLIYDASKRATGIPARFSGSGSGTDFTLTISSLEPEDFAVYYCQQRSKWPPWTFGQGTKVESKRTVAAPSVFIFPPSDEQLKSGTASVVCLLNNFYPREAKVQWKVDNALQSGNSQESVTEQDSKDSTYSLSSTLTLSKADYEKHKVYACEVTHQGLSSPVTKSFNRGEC
heavy 1: not shown
heavy 2: B2 heavy 2 with M253Y, A254I, S255T, T257E, A311H, A436H
notes: tied by description; also called <IGF-1R> IgG1 knob wt, hole M252Y, S254T, T256E; anti-IGF-1R antibody, one chain with M252Y/S254T/T256E
B5: IGF-1R 0037 (antibody, human IgG1, kappa)
light: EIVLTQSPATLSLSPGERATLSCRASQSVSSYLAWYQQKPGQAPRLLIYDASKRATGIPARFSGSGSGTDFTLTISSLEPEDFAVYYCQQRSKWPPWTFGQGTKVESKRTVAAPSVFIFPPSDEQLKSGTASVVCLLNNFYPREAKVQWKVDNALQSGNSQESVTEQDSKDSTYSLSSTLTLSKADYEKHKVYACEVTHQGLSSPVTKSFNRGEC
heavy 1: not shown
heavy 2: B2 heavy 2 with L252D, A254I, A311H, L315D, L433D, A436H
notes: tied by description; also called <IGF-1R> IgG1 knob wt, hole L251D, L314D, L432D; anti-IGF-1R antibody, one chain with L251D/L314D/L432D

Tests used:
[1] = target: T1, human neonatal Fc-receptor (FcRn) (human, UniProt P55899 24-297; P61769 21-119); assay: SPR (BIAcore), FcRn immobilized on a CM5 chip, pH 6.0, 200 nM sample
T1 construct: also called human FcRn; huFcRn
Experimental: The binding properties of wild-type antibody and the mutants to FcRn were analyzed by surface plasmon resonance (SPR) technology using a BIAcore T100 instrument (BIAcore AB, Uppsala, Sweden). […] In the current assay, the FcRn receptor was immobilized onto a BIAcore CM5-biosensor chip (GE Healthcare Bioscience, Uppsala, Sweden) via amine coupling to a level of 400 Response units (RU). The assay was carried out at room temperature with PBS, 0.05% Tween20 pH 6.0 (GE Healthcare Bioscience) as running and dilution buffer. 200 nM of samples were injected at a flow rate of 50 μL/min at room temperature. Association time was 180 sec., dissociation phase took 360 sec. Regeneration of the chip surface was reached by a short injection of HBS-P, pH 8.0. Evaluation of SPR-data was performed by comparison of the biological response signal height at 180 sec. after injection and at 300 sec. after injection. The corresponding parameters are the RU max level (180 sec. after injection) and late stability (300 sec. after end of injection).

[2] = target: T1, human neonatal Fc-receptor (FcRn); assay: FcRn affinity chromatography, anti-IGF-1R KiH antibody

T1 sequence (P55899 24-297 limits assumed, chain 1 of 2): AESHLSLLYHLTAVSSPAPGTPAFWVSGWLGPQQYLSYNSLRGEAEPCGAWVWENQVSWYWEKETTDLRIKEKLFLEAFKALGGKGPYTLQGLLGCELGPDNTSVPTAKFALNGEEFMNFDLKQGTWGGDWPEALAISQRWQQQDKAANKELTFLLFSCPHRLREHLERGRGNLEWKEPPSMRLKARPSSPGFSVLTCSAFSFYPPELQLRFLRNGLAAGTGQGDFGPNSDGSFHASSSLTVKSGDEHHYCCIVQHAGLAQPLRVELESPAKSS
T1 sequence (P61769 21-119 limits assumed, chain 2 of 2): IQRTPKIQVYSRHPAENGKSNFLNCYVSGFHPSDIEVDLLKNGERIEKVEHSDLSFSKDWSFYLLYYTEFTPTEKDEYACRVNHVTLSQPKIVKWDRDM

| Binder | binding result [1] | retention time on FcRn affinity column [2] |
| --- | --- | --- |
| B1 | binds | – |
| B2 | – | 42 min |
| B3 | – | 42.4 min |
| B4 | – | 57.6 min |
| B5 | – | 40.9 min |
